Results from paper PMC11147762.

How the values were obtained:
[1] = target: DDX41-ΔHel-Y259C (Homo sapiens, UniProt Q9UJV9 1-406+568-622, Y259C;internal_change); assay: EMSA; EMSA, 0-1300 nM protein with 10 nM nucleic acid; buffer, salt, pH and temperature not in material; settings: protein: recombinant; label: 5'-Cy5 on oligo1; 5'-Cy3 on RNA; bubble of oligo1/oligo2 with 25-nt RNA paired to oligo2
[2] = target: T1, DDX41-ΔHel-WT (DDX41 D3) (Homo sapiens, UniProt Q9UJV9 1-406+568-622, internal_change); assay: as above; settings: protein: recombinant, label: 5'-Cy5 on oligo1
T1 sequence (Q9UJV9 other isoform, or with tags, fused parts or gaps | mutant): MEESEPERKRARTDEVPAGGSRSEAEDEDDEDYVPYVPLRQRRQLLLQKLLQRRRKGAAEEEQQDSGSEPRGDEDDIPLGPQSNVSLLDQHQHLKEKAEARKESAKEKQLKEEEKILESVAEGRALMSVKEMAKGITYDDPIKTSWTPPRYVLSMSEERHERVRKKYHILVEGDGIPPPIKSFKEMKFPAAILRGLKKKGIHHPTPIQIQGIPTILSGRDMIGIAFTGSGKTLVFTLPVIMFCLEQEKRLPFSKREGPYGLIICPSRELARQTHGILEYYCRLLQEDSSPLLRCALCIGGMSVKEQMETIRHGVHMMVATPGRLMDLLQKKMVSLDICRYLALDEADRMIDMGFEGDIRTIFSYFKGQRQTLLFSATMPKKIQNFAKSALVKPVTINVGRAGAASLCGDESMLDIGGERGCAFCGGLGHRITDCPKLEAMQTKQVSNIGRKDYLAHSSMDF

[3] = target: DDX41-R525H (Homo sapiens, UniProt Q9UJV9 1-622, R525H); assay: as above; settings: protein: recombinant; label: 5'-Cy5 on oligo1; 5'-Cy3 on RNA; bubble of oligo1/oligo2 with 25-nt RNA paired to oligo2
Sequence of DDX41-R525H (Q9UJV9 whole entry R525H): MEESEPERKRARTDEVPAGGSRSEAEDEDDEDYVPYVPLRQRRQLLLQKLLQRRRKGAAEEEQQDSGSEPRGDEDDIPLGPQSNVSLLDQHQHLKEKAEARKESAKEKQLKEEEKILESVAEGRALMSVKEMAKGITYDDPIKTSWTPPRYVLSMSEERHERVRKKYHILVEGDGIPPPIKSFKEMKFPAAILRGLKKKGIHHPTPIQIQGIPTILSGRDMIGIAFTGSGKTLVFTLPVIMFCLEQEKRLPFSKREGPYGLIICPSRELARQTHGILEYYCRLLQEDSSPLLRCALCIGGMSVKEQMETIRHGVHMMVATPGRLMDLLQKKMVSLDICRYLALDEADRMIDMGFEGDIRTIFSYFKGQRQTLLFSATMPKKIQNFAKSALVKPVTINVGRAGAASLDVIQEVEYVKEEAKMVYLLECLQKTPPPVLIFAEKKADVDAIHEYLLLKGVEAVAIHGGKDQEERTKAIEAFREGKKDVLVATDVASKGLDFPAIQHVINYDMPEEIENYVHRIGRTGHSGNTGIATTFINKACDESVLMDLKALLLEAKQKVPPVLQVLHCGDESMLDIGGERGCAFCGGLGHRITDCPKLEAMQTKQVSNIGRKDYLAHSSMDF

[4] = target: T1, DDX41-ΔHel-WT (DDX41 D3); assay: EMSA; m6A had no effect on affinity; EMSA, 0-1300 nM protein with 10 nM nucleic acid; buffer, salt, pH and temperature not in material; settings: protein: recombinant; label: 5'-Cy5 on oligo1; 5'-Cy3 on RNA; bubble of oligo1/oligo2 with 25-nt RNA paired to oligo2

Sequence of DDX41-ΔHel-Y259C (Q9UJV9 other isoform, or with tags, fused parts or gaps Y259C/| Y259C Y259C): as the sequence (Q9UJV9 other isoform, or with tags, fused parts or gaps | mutant) above, with Y259C counted along it

B1: R-loop (mixed)
DNA 1: GCCAGGGACGAGGTGAACCTGCAGGTGGGCGGCTACTACTTAGATGTCATCCGAGGCTTATTGGTAGAATTCGGCAGCGTCATGCGACGGC
DNA 2: GCCGTCGCATGACGCTGCCGAATTCTACCACGCGATTCATACCTGTCGTGCCAGCTGCTTTGCCCACCTGCAGGTTCACCTCGTCCCTGGC
RNA: GCAGCUGGCACGACAGGUAUGAAUC
Does B1 bind [1]?
Result: binds

Does B1 bind ([2]; 5'-Cy3 on RNA, bubble of oligo1/oligo2 with 25-nt RNA paired to oligo2)?
Result: binds

Does B1 bind [3]?
Result: binds

B2: D-loop (structured_DNA)
DNA 1: B1 DNA 1
DNA 2: B1 DNA 2
DNA 3: GCAGCTGGCACGACAGGTATGAATC
Does B2 bind ([2]; bubble with 25-nt DNA paired to oligo2)?
Result: binds

B3: m6A R-loop (mixed)
DNA 1: B1 DNA 1
DNA 2: B1 DNA 2
RNA: GCAGCUGGCACGACAGGUAUGAAUC
modifications: m6A in RNA strand; positions not visible in material
Does B3 bind [4]?
Result: binds
